Patent publication US20230165982A1 (HOBER BIOTECH, published 2023)

Target: Human epidermal growth factor receptor 2 (HER2) (human, UniProt P04626 23-1255)
Test: cell-based or functional assay

B1: 99mTc-ADAPT6 (designed binder)
chain: GSSHHHHHHDEAVDANSLAAAKETALYHLDRLGVADAYKDLIDKAKTVEGVKARYFEILHALP
modifications: also: 99mTc(CO)3 chelated by the His6 subsequence (residues 4-9)
  tumor-to-contralateral breast ratio (SPECT), 2 h after injection of 250 µg: 7.8
  tumor-to-contralateral breast ratio (SPECT), patient 17 (tumor later found FISH-negative), 2 h after injection of 1000 µg: 1.33
